Molecular target: Vaccinia DNA topoisomerase I (Vaccinia virus, UniProt P68698 P68698:1-314)
Assay: covalent topoisomerase-DNA complex isolated on SP Sepharose; cleaved linker band seen after proteinase K
Details: tags: Invitrogen; nicked duplex with 3' overhang
Protocol: The topoisomerase-charged promoter linker was purified using an Akta-FPLC and Unicom software ver. 4.00 (Amersham). 360 μl of the linking reaction was loaded onto a 1 ml HiTrap SP Sepharose HP pre-packed column (Amersham) pre-equilibrated in buffer A (50 mM Tris-HCl pH 7.0), washed at 0.5 ml/min with 11 ml buffer A (collected in 1 ml fractions), and eluted with a 5 ml, 0-100% buffer B (50 mM Tris-HCl pH 7.0, 1M NaCl) gradient followed by 3 ml of 100% buffer B. The eluate was collected in 0.2 ml fractions.

B1: T7 TOPO linker (T7topG/T7botG/TOPO-5) (dsDNA)
DNA 1: GACTCGTAATACGACTCACTATAGGGCCCTTATTCCGATAGTG
DNA 2: AGGGCCCTATAGTGAGTCGTATTACGAGTCAAAAAAAAAAAA
DNA 3: CAACACTATCGGAATA
modifications: 5'-phosphate on each oligo
  binding result: binds
